# How the values were obtained:
# [1] = test system: CBCA, THCA, and CBDA production; CBGA residual substrate; experiment: In vivo TS activity assay, Example 3 metagenomic CBCAS screen, cultures fed olivetolic acid; format: cell-based, S. cerevisiae
# Description: (§1) An assay to detect TS activity was conducted as follows: each thawed glycerol stock of candidate CBCAS transformants was stamped into a well of YEP+4% dextrose media. Samples were incubated at 30° C. in a shaking incubator for 2 days. A portion of each of the resulting cultures was stamped into a well of YEP+4% galactose+1 mM olivetolic acid (FIG. 1 Structure 6a). Samples were incubated at 20° C. and shaken in a shaking incubator for 4 days. Every 24 hours during those 4 days, 2% galactose and 1 mM olivetolic acid were spiked into the cultures. Sodium citrate buffer adjusted to pH 5.5 was added to each well at a final concentration of 100 mM. Samples were incubated at 20° C. and shaken in a shaking incubator for 2 days. A portion of each of the resulting production cultures was stamped into a well of phosphate buffered saline (PBS). Optical measurements were taken on a plate reader, with absorbance measured at 600 nm and fluorescence at 528 nm with 485 nm excitation. Samples were incubated at 30° C. in a shaking incubator for 2 days. 100% methanol was stamped into the production cultures in half-height deepwell plates. Plates were heat sealed and frozen. Samples were then thawed for 30 min and spun down at 4° C. A portion of the supernatant was stamped into half-area 96 well plates. CBCA, THCA, and CBDA production in the samples was quantified via liquid chromatography-mass spectrometry (LC-MS).
# (§2) To explore whether other putative CBCASs may exist in the broader metagenome, a library of 1072 candidate CBCAS genes was designed using the A. niger CBCAS enzyme identified in Example 1 as a reference. Protein sequences were recoded in silico for expression in S. cerevisiae and synthesized in the integrative yeast expression vector shown in FIG. 5. Each candidate enzyme expression construct was transformed into an S. cerevisiae CEN.PK strain that also expressed a prenyltransferase enzyme capable of catalyzing reaction R^4 in FIG. 2. Strain t616313, expressing GFP, was included in the library screen as a negative control for enzyme activity. Strain t807925, expressing the A. niger enzyme identified in Example 1, was included in the library screen as a positive control for enzyme activity. All candidate enzymes in the library, as well as the enzyme expressed by positive control strain t807925, included an N-terminal MFalpha2 signal peptide (SEQ ID NO: 16) (with a methionine residue added at the N-terminus of the MFalpha2 signal peptide) and a C-terminal HDEL signal peptide (SEQ ID NO: 17).
# The library of candidate CBCAS enzymes was assayed for activity in a primary high-throughput screen using the assay described in Example 1. Production of CBCA, THCA, and/or CBDA in the samples was quantified via LC-MS.
# (§3) Based on results of the primary screen, 70 strains were carried forward to a secondary screen to confirm activity observed in the primary screen. The experimental protocol for the secondary screen was identical to the primary screen, except that additional technical replicates were included per strain, and replicate production cultures for each strain were separately fed 1 mM olivetolic acid or 1 mM divaric acid. All strains were screened in quadruplicate (FIGS. 10A-10C, Tables 10 and 11).
# [2] = test system: CBCVA, THCVA, and CBDVA production; CBGVA residual substrate; experiment: In vivo TS activity assay, Example 3 metagenomic CBCAS screen, cultures fed divaric acid; format: cell-based, S. cerevisiae
# Description: as §1, §2, §3
# [3] = test system: CBCA production; experiment: In vivo TS activity assay, Example 4 CBCAS enzymes with and without signal peptides, no pH adjustment; format: cell-based; details: strains with (Y) or without (N) N-terminal and C-terminal signal peptides; no pH adjustment at Day 4; S. cerevisiae
# Description: as §1
# A library of 20 CBCAS enzymes selected from Example 1 and 3 was synthesized, including versions of the CBCAS enzymes with and without the N-terminal MFalpha2 signal peptide (SEQ ID NO: 16) and C-terminal HDEL signal peptide (SEQ ID NO: 17). Each candidate enzyme expression construct was transformed into an S. cerevisiae CEN.PK strain that also expressed a prenyltransferase enzyme capable of catalyzing reaction R^4 in FIG. 2. Strain t861555 expressing the A. niger CBCAS identified in Example 1, carrying both the Mfalpha2 and HDEL signal peptides was included in the library screen as a positive control for enzyme activity. Strain t861565 expressed the same A. niger CBCAS without the Mfalpha2 and HDEL signal peptides.
# The strains were screened using the assay described in Example 1 with the following exception: at Day 4 samples were not subjected to a pH adjustment and a further 2 days of incubation at 20° C.
# [4] = metagenomic CBCAS candidates in S. cerevisiae, secondary screen, fed 1 mM olivetolic acid, quadruplicate
# [5] = share of terminal cannabinoid product profile, fed 1 mM olivetolic acid
# [6] = secondary screen, cultures fed 1 mM divaric acid, S. cerevisiae, quadruplicate, LC-MS
# [7] = share of terminal cannabinoid products, cultures fed 1 mM divaric acid
molecule,measurement,setting,value
t808253 (protein) MGNTTSIAAGRDCLVSAVGPAHVTFQDALLYQTTAVDPYNLNIPVTPAAVTYPQSAEEIAAVVKCASDYDYKVQARSGGHSFGNYGLGGQNGAIVVEMKHFSQFSMDESTFVATIGPGTTLGDLDTELYNTGGRAMAHGICPTIRTGGHLTVGGLGPTARQWGLALDHIEEVEVVLANSSIVRASNTQNQDILFAVKGAAASFGIVTEFKVRTQEAPGLAVQYSFTFNLGSAAQKAKLVKDWQAFIAQENLSWKFYSNLVIFDGQIILEGIFFGSKEEYDELDLEKRFPTSEPGTVLVLTDWLGMIGHGLEDTILKLVGDTPTWFYAKSLGFTPDTLIPDSAIDDFFDYIHKTNAGTLAWFVTLSLEGGAINSVSEDATAYGHRDVLFWFQVFVVNPLGPISQTTYDFTNGLYDVLAQAVPESAGHAYLGCPDPKMPDAQRAYWRSNLPRLEDLKGDLDPKDTFHNPQGVQVGP,Mean CBCA,[1]; [4],15518.14 µg/L
same,Mean CBDA,[1]; [4],63.99 µg/L
same,Mean THCA,[1]; [4],916.93 µg/L
same,Average CBGA residual substrate,[1]; olivetolic acid fed (Table 12),0.00 µg/L
same,% CBCA,[1]; [5],94.05%
same,% CBDA,[1]; [5],0.39%
same,% THCA,[1]; [5],5.56%
same,Average CBGVA residual substrate,[2]; divaric acid fed (Table 12),0.00 µg/L
same,Mean CBCVA,[2]; [6],1476.99 µg/L
same,Mean CBDVA,[2]; [6],0.00 µg/L
same,Mean THCVA,[2]; [6],715.85 µg/L
same,% CBCVA,[2]; [7],67.35%
same,% CBDVA,[2]; [7],0.00%
same,% THCVA,[2]; [7],32.65%
t861559 (protein) MAPSISFSLLQISLLAYSGLVSGDFSLRQCLESAVSRVAFEGDPFYQLLSVRPYNLDISIVPAAVAFPADTNEVAAVVRCAAQNGYQVQAKSGGHSYANHGLGGTNGAVVVNLENLQHFSMNTTTWEATIGAGTLLGDVTKRLSDAGGRAMAHGTCPQVGSGGHFTIGGLGPSSRQFGAALDHIIEAEVVLANSSIIRASETENPDVFFAVRGAASGFGIVTEFKVRTEPEPGQAVRYSYSFSFSDTATRADLFKKWQAYVTQPDLPRELASTLTILEHGMFITGTFFGSKEEYNALKIETEFPGFAKGGTLVLDDWLGLVSNWAEDLLLSEEEIEQMFEYIDNVDKGTLLWFAIFDLQGGAVGDVPVDATAYAHRDTLIWLQSYAINLFGRISETTVEFLERLNELTLTSTAKTVPYAAYPGYVDPRLTDAQAAYWGSNLARLNRIKAEIDPNNVFHNPQSVRPASG,Average CBCA,[3],0.00 µg/L
t861586 (protein) MAPSISFSLLQISLLAYSGLVSGDFSLRQCLESAVSRVAFEGDPFYQLLSVRPYNLDISIVPAAVAFPADTNEVAAVVRCAAQNGYQVQAKSGGHSYANHGLGGTNGAVVVNLENLQHFSMNTTTWEATIGAGTLLGDVTKRLSDAGGRAMAHGTCPQVGSGGHFTIGGLGPSSRQFGAALDHIIEAEVVLANSSIIRASETENPDVFFAVRGAASGFGIVTEFKVRTEPEPGQAVRYSYSFSFSDTATRADLFKKWQAYVTQPDLPRELASTLTILEHGMFITGTFFGSKEEYNALKIETEFPGFAKGGTLVLDDWLGLVSNWAEDLLLSEEEIEQMFEYIDNVDKGTLLWFAIFDLQGGAVGDVPVDATAYAHRDTLIWLQSYAINLFGRISETTVEFLERLNELTLTSTAKTVPYAAYPGYVDPRLTDAQAAYWGSNLARLNRIKAEIDPNNVFHNPQSVRPASG,Average CBCA,[3],0.00 µg/L
t861557 (protein) MLKTIAAVVFICSQAFLVRADLKSELTALGVGAVFPGDSVYTSDAKPYNLRFDFKPAAITFPNTPADVSQIVQIAGKYAHKVAPRGGGHSYISNGVGGMDNSIIADMSHFKSIVVHTNNDTATIETGNRLGDIALALFQYGRGMPHGACPYVGIGGHANFGGFGFISRSWGLTLDVVEAIDLVLANGTITTVSATQNPDLYWAMRGSGSSFGITTAIHVRTFSAPASGIIALDTWYLNLEQAVRALSSFQDFAHNTVTLPSYFGGEFVVNAGPSPGLLSITFFSGFWGPPNQYNSTLAPWKNSMPFPPNTTSYSQGNYIESLSARFGGAPLDTSLGPDNTDTFYVKSLIVPQVTISDEGAQVGISDKAWRALFQYLINEQPNLPVDWFIEVELWGGQNSAINAVPQASTAFAYRDLLWTLQMYSYTPNHQPPYPDAGFAFNDGMANSIIHNMPNGWNYGAYTNYVDNRLDDWQRLYYANHYPALQALKSRYDPSDTFSFPTSIELL,Average CBCA,[3],520.64 µg/L
t861563 (protein) MARVPALFLGLSSVCLLVFFCSLINPTTPLHQHGKQTSIAGRDCLVSALGGNTGLVAFQDQLLYQTTAVHEYNLNIPVTPAAITYPETSEQIAAVVKCASEYDYKVQARSGGHSFGNYGLGGADGAVVVDMKHFTQFSMDEQTYEAVIGPGTTLGDVDTELYNNGKRAMAHGICPTISTGGHFTMGGLGPTARQWGLALDHVEEVEVVLANSSIVRASNTQNQEVFFAVKGAAASFGIVTEFKVRTQPAPGLAVQYSYTFNLGSSAEKAQFVKDWQSFISAKNLTRQFYTNMVIFDGNIILEGLFFGSKEQYEALGLEDRFVPKNPGNILVLTDWLGMVGHALEDTILRLVGNTPTWFYAKSLGFTPDTLIPSSGIDEFFDYIENNKAGTLTWFVTLSLEGGAINDVPKDATAYGHRDVLFWVQIFMASPTGPVSSTTYDFADGLYNVLTKAVPESEGHAYLGCPDPKMADAQQKYWRQNLPRLEELKATLDPKDTFHNPQGILPA,Average CBCA,[3],4821.60 µg/L
t861562 (protein) MGNTTSIAAGRDCLISAVGGNAAHVAFQDQLLYQATAVEPYNLNIPITPAAITYPQSADEIAAVVKCASEYGYKVQARSGGHSFGNYGLGGEDGAIVVEMKHFSQFSMDESTYIATIGPGITLGDLDTELYNVGHRAMAHGICPTIRTGGHLTVGGLGPTARQWGLALDHVEEVEVVLANSSIVRASDTQNQDIFFAIKGAAASFGIVTEFKVRTEQAPGLAVQYSYTFNLGTPAEKAKLVKDWQAFIAQENLSWKFYSNMVVFDGQIILEGLYFGSKEEYDALGLEQRFPPSEAGNVLVLTDWLGMVGHELEDTILRLVGNTPTWFYAKSLGFTPRALIPDSAIDDLFNYIHENNPGTLAWFVTLSLEGGAINTVPEHATAYGHRDVLFWVQIFVINPLGPVSQTTYGFADGMYDVLAQAVPESAGHAYLGCPDPRMPNAQQAYWRSNLPRLEELKGDLDPKGIFHNPQGVMVVS,Average CBCA,[3],55737.91 µg/L
t861555 (protein) MGNTTSIAGRDCLISALGGNSALAVFPNELLWTADVHEYNLNLPVTPAAITYPETAAQIAGVVKCASDYDYKVQARSGGHSFGNYGLGGADGAVVVDMKHFTQFSMDDETYEAVIGPGTTLNDVDIELYNNGKRAMAHGVCPTIKTGGHFTIGGLGPTARQWGLALDHVEEVEVVLANSSIVRASNTQNQDVFFAVKGAAANFGIVTEFKVRTEPAPGLAVQYSYTFNLGSTAEKAQFVKDWQSFISAKNLTRQFYNNMVIFDGDIILEGLFFGSKEQYDALGLEDHFAPKNPGNILVLTDWLGMVGHALEDTILKLVGNTPTWFYAKSLGFRQDTLIPSAGIDEFFEYIANHTAGTPAWFVTLSLEGGAINDVAEDATAYAHRDVLFWVQLFMVNPVGPISDTTYEFTDGLYDVLARAVPESVGHAYLGCPDPRMEDAQQKYWRTNLPRLQELKEELDPKNTFHHPQGVMPA,Average CBCA,[3],21237.64 µg/L

# Source: patent publication US20230137139A1, “BIOSYNTHESIS OF CANNABINOIDS AND C[…]” (priority 2020, published 2023)
